Laboratory results as given in paper PMC5017159.

Legend:
[1] = molecular target: human heat shock protein 70 (hHsp70) (human) (UniProt P0DMV8); assay: BLI; Octet Red; biotinylated hHsp70 immobilised on streptavidin tips, dipped into E. coli GAPDH (39.5, 59.3, 88.9, 133.3 and 200 nM) in PBS; association 600 s, dissociation 900 s; 1:1 model
human GAPDH (human) = human GAPDH (human) (UniProt P04406); assay: BLI; Octet Red; biotinylated human GAPDH immobilised on streptavidin tips, dipped into hHsp70 (2.05, 5.12, 12.8, 32 and 80 nM) in PBS; association 600 s, dissociation 900 s; 1:1 model
Sequence of UniProt P04406 (P04406 whole entry): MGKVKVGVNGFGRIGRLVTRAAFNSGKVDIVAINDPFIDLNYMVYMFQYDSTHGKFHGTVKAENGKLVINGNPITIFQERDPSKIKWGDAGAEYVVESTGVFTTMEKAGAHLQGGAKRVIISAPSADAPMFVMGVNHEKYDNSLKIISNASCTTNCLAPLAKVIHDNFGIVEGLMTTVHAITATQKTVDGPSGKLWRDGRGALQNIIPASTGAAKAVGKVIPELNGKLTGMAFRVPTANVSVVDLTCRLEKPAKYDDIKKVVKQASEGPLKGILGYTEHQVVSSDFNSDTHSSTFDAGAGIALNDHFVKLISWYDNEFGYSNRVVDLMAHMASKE

Kd [1] [nM]	koff [1] [s⁻¹]	kon [1] [M⁻¹ s⁻¹]	Kd (human GAPDH (human)) [nM]	koff (human GAPDH (human)) [s⁻¹]	kon (human GAPDH (human)) [M⁻¹ s⁻¹]	Substance
8.2	0.00024	29300				E. coli glyceraldehyde 3-phosphate deshydrogenase (GAPDH), recombinant (from UniProt P0A9B2 1-331) (enzyme)
			1.3	9.3e-05	72400	human heat shock protein 70 (hHsp70) (from UniProt P0DMV8 1-641) (natural protein)
